Measurements from patent publication US20070185028A1, “Compositions and methods for treatment of protein misfolding and protein aggregation diseases” (priority 2004, published 2007).

Assays:
amyloid beta (1-42) = amyloid beta (1-42) (Homo sapiens, UniProt P05067); test: Cu+++-induced aggregation of amyloid beta (1-42), light scattering 360 nm; type: biochemical; conditions: 100 mM Cu+++
Experimental: In vitro assays were also performed to measure the ability of the human αB crystallin derived peptides identified in Example 1 to inhibit aggregation of Cu^+++-induced amyloid beta (1-42) aggregation. Aggregation assays were performed using routine procedures, in the presence or absence of a synthesized peptide identified in Example 1, in the presence of 100 mM Cu^+++. Aggregation was measured spectrophotometrically as light scattering at a wavelength of 360 nm. Aggregated amyloid-beta was assigned a value of 100% aggregation and used to normalize aggregation in the presence of synthesize peptides.
Aggregation was measured spectrophotometrically as light scattering at a wavelength of 360 nm. Aggregated amyloid-beta was assigned a value of 100% aggregation and used to normalize aggregation in the presence of synthesize peptides. Aggregation was plotted as a bar graph with the standard error for duplicate experiments. The 1 st vertical bar is the scattering measured for aggregated amyloid-beta (100% aggregation) in the presence of 100 mM Cu^+++. The 2nd-4th vertical bars is the scattering from amyloid-beta in the presence of wild type recombinant human αB crystallin. The 5th-13th vertical bars are the scattering of amyloid-beta in the presence of the synthetic peptides, DRFSVNLDVKHFS or LTITSSLSDGV or HGKHEERQDE at selected concentrations. A prefix of 10× represents a 10:1 molar concentration of amyloid-beta to either wild type αB crystallin or its peptides. A prefix of 1× represents a 1:1 molar concentration of amyloid-beta to either wt αB crystallin or its peptides. A prefix of 0.1× represents a 1:10 molar concentration of amyloid-beta to either wt αB crystallin or its peptides.

[1] = target: T1, equine alcohol dehydrogenase (ADH) (Equus caballus, UniProt P00327); test: αB crystallin protein pin array with alcohol dehydrogenase; type: binding; conditions: ADH as ligand in the pin array
T1 construct: purchased Sigma-Aldrich, MO 05646
Source text: Synthesis of Pins, binding and detection of peptides binding to ligand proteins. The αB crystallin protein pin array was used to measure the interaction between peptides and chaperone target proteins including bovine βH crystallin, human γD crystallin, equine alcohol dehydrogenase (ADH) and porcine citrate synthase (CS) as described (FIG. 12). Ghosh and Clark, Protein Sci 14: 684-95, 2005.
Refer to the methods section for detailed protocols. The absorbance corresponding to the blue coloration in each well was measured at λ=450 nm and plotted against the amino acid sequence of the corresponding peptide in that well (FIGS. 13 and 14). Wells containing peptides that have strong interactions with target proteins are dark blue and wells containing peptides that have weak or no interaction with target proteins are light blue or clear.
The purity of the target proteins used in the pin array assays, bovine βH crystallin, human γD crystallin, equine alcohol dehydrogenase (ADH) and porcine citrate synthase (CS) were determined to be >90% by SDS-PAGE. In addition, primary antibodies for each target protein were specific to that target protein and consequently contaminating proteins that may bind to the peptides will not be detected. Eighty-four sequential and overlapping peptide fragments corresponding to residues 1-175 of human αB crystallin were synthesized employing a simultaneous peptide synthesis strategy developed by Geysen, called Multipin Peptide Synthesis (Mimotopes, San Diego, Calif.). Geysen, Southeast Asian J Trop Med Public Health 21: 523-33, 1990; Chin et al., J Org Chem 62: 538-539, 1997. Peptides were immobilized on derivatized polyethylene pins arranged in a microtiter ELISA plate format. Each peptide was eight amino acids in length and consecutive peptides were offset by two amino acids. All peptides were bound covalently to the surface of the plastic pins. The first peptide was 1MDIAIHHP8 and the last peptide was 168PAVTAAPK175 for human αB crystallin.
Ghosh and Clark, Protein Sci 14: 684-95, 2005. […] The intensity of the blue color in the wells was measured at 450 nm using an ELISA plate-reader (BioTek, Winooski, Vt.). The intensity of the blue color (plotted on the X-axis) was a measure of the interaction between αB crystallin peptides (plotted on the Y-axis) and target proteins. To measure the effect of temperature on the interactions between interactive peptides and the target proteins, the target proteins were heated in a water-bath at 45° C. for fifteen minutes prior to use. Pin arrays are unable to differentiate between monomers, dimers or oligomers of target proteins that exist in solution. Instead, pin arrays are very sensitive detectors of interactions between individual peptides and the entire population (monomers, dimers or oligomers) of specific target proteins that may exist in solution under specific conditions. Each target protein was assayed two to five times. A single pin array was used for all experiments and no change in interactions was observed after more than thirty repetitions. The last three peptides of the protein pin array, 163REEKPAVT170, 165EKPAVTAA172, 167PAVTAAPK174, correspond to the epitope (163REEKPAVTAAPKK175) recognized by the primary antibody for human αB crystallin. A positive reaction is observed for these three peptides in the absence of human αB crystallin as the ligand due to direct binding of the anti-human αB crystallin antibody to these three peptides. The loss of efficiency for the pin array was measured using this assay. The loss of efficiency for the pin array was determined to be <5% by after more than 30 assays.
The pattern of absorbance at k=450 nm when αB crystallin peptides were assayed with unheated and pre-heated ADH was similar to the absorbance pattern obtained with unheated and pre-heated βH/γD crystallin (FIG. 17). […]

[2] = 1:1 and 1:10 molar ratio of amyloid-beta to peptide
[3] = 10:1 molar ratio of amyloid-beta to peptide

T1 sequence (P00327 whole entry): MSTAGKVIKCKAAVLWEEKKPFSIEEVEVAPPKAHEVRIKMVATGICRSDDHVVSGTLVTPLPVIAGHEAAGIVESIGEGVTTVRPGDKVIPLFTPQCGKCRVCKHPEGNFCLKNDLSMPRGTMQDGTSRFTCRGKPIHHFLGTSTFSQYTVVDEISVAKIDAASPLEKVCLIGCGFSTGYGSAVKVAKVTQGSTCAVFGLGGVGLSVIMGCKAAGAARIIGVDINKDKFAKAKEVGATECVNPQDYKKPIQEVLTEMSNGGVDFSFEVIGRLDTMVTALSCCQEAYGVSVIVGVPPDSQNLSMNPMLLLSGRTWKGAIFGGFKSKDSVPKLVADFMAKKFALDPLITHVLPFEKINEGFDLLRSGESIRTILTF

Sequence | prevention of Cu+++-induced aggregation of amyloid-beta (amyloid beta (1-42); [2]) | prevention of Cu+++-induced aggregation of amyloid-beta (amyloid beta (1-42); [3]) | absorbance at 450 nm, interaction with ADH [1]
DRFSVNLDVKHFS | equally effective | less effective | 
FSVNLDVK [Peptide 38] |  |  | Maximum absorbances
HGKHEERQDE | equally effective | less effective | 
LTITSSLS [Peptide 66] |  |  | Maximum absorbances
WIRRPFFP [Peptide 5] |  |  | Maximum absorbances
